In patent US7118737:

Molecular target: CCR5 (UniProt P51681)
Experiment: cell-based or functional assay

UniProt P51681, sequence (P51681 whole entry): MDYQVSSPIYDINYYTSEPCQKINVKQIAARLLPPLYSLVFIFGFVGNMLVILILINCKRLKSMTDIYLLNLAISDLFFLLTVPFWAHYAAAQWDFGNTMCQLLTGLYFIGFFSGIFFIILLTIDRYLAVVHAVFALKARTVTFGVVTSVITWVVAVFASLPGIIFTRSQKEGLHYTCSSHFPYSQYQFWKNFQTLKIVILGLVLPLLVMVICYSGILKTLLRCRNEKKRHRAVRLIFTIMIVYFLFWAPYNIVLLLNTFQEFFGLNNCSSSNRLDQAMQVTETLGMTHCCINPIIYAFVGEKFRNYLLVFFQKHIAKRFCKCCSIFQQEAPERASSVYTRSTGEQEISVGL

Substance | EC50, inhibition of HeLa P4-CCR5/HeLa-Env-ADA cell fusion (β-galactosidase reporter) [nM]
AOP-RANTES (2-68) (from UniProt P13501 25-91) (ligand) | 1.81
NNY-RANTES (2-68) (from UniProt P13501 25-91) (ligand) | 0.323
